Ends that are not written are not given here.
Assays:
inactive GIP, GIP(3-42) = molecular target: T1, inactive GIP, GIP(3-42); assay: sandwich ELISA, anti-total GIP capture antibody, biotinylated m1 as detection antibody at 1 ug/mL
T1 peptide: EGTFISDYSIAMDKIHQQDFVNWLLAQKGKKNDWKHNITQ
Method: The reactivity between the monoclonal antibody prepared in Production Example 1 and active GIP was confirmed by ELISA. The amino group of the anti-active GIP monoclonal antibody was biotinylated with NH2 group biotinylation kit (manufactured by Dojindo Laboratories). ELISA was performed using the produced biotinylated anti-active GIP monoclonal antibody at 1 μg/mL instead of a detection antibody, GIP detection antibody (biotinylated anti-total GIP monoclonal antibody), included in Human (total) GIP ELISA kit (manufactured by EMD Millipore Corporation). A […] dilution series of GIP(1-42) or GIP(3-42) was prepared in 6 steps (8.2 to 2000 pg/mL) with a 2000 pg/mL solution as the highest concentration. By using an anti-total GIP monoclonal antibody (included in Human GIP (total) ELISA kit manufactured by EMD Millipore Corporation) as a capture antibody, the biotinylated anti-active GIP monoclonal antibody as a detection antibody, and a peroxidase-streptavidin conjugate for detection, sandwich ELISA was conducted to prepare a calibration curve with GIP concentration on the X-axis and 450 nm-590 nm absorbance on the Y-axis (FIG. 1).

[1] = molecular target: T2, PEGylated N-terminus 15 amino acids of active GIP (GIP(1-15)), antigen (1) for measurement (also: PEGylated, site not given here); assay: ELISA, immobilized antigen, hybridoma culture supernatant
T2 construct: also called PEGylated GIP(1-15)
T2 peptide: YAEGTFISDYSIAMD
Method: (§1) The reaction between the hybridoma culture supernatant and the antigen (1) and (2) for measurement was evaluated by ELISA using immobilized antigen (1) and (2), and hybridomas that are positive for the antigen (1) and negative for the antigen (2) were selected as anti-active GIP monoclonal antibody-producing hybridomas.

[2] = molecular target: T3, PEGylated N-terminus 13 amino acids of inactive GIP (GIP(3-15)), antigen (2) for measurement (also: PEGylated, site not given here); assay: as above
T3 construct: Immobilized on the ELISA plate; also called PEGylated GIP(3-15)
T3 peptide: EGTFISDYSIAMD
Method: as §1

binding result (inactive GIP, GIP(3-42)): no binding (tested: 2000 pg/mL) | binding result [1]: binds | binding result [2]: no binding
B1: anti-active GIP monoclonal antibody produced by hybridoma 9B9H5-B9 line (Production Example 1) (antibody, V domains shown)
VH: QVQLQQPGAELVKPGASVKLSCKASGYTFTSFWMHWVIQRPGQGLEWIGEMNPSDGRTHFNEKFKTKATLTIDTSSNTAYMELNSLTSEDSAVYYCARRMEDWGQGTLVTVSA
VL: DIKMTQSPSSMYASLGERVTITCKASQDINSYLGWFQQKPGKSPKTLIYGANRLVDGVPSRFSGSGSGQDYSLTISSLEYDDMGIYYCLQYDEFPLTFGAGTKLELKR
notes: also called anti-active GIP antibody; anti-GIP antibody
